From the supplement of paper PMC10126150
± gives the standard deviation of the averaged measurements.

System: ATP
Experiment: switch fluorescence ratio, 500 uM ATP over buffer (Cy3 cluster intensity, sum of 5 cycles each) (fold (ratio)); higher = stronger signal-on switching upon ATP binding; sequences stand for … in TCGTCGGCAGCGTCAGATGTGTATAAGAGACAGTTTTTTTTTTTTTTTTTTTTTTTTT…TC
Details: aptamer strand: ATP DNA aptamer (quencher-CACCTGGGGGAGTATTGCGGAGGAAGG + anchor), 100 nM annealed; ATP concentration: 500 uM
Method in brief: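 The fluorescence ratio divides summed target-cycle Cy3 intensity by summed buffer-cycle Cy3 intensity for each cluster and is averaged per switch-domain sequence. Cy3-labelled switching-strand clusters on a modified Illumina MiSeq flow-cell were annealed to 100 nM quencher-labelled ATP aptamer, then imaged in selection buffer and again after 15 min with 500 uM ATP at 22 °C. Five such cycles were run, with NaOH stripping and re-annealing between them, and clusters outside 100-1000 RFU were excluded.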
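Note: ATP exposure 15 min at 22 °C before imaging.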

Sequence | switch fluorescence ratio
CGTGTGGTGG | 0.944 ± 0.032
TCTCACGGGG | 1.29 ± 0.33
GCTTTTAGAT | 0.9794 ± 0.0028
TTCCCCCCAA | 1.76 ± 0.74
CTGCGGGTGC | 1.31 ± 0.2
ACACCACGTT | 1.56 ± 0.057
CCTATTATTA | 1.02 ± 0.028
TACATGGGTG | 1.01 ± 0.054
GGGGTTCTAG | 0.999 ± 0.0042
TGATGATGAG | 0.996 ± 0.013
GTTTTTACTG | 1.05 ± 0.081
TAGGGGAATG | 1.02 ± 0.098
AACGGTCAGA | 1.02 ± 0.05
TACGGGGGAT | 1.02 ± 0.054
GCAGTTTGTT | 0.978 ± 0.019
GCATGCTGGG | 1.04 ± 0.0064
CGGCTAGGGT | 0.998 ± 0.021
TACCTGCCGG | 1.08 ± 0.026
CAGCCTGCGG | 1.01 ± 0.029
TAACTGCAGA | 1.01 ± 0.038
ACGGGGTCTA | 0.993 ± 0.027
ATTTAGGCTG | 1.062 ± 0.0089
TATGCATTGT | 1.01 ± 0.017
ATGGAAGGGA | 1.15 ± 0.21
ATAAGGGGTG | 1.02 ± 0.069

Sequence | switch fluorescence ratio
AACCCCCGTT | 1.07 ± 0.09
TCATACCATT | 1 ± 0.024
GTTTGCTTAG | 0.986 ± 0.024
TTCTGGGGTA | 0.988 ± 0.033
AGTGGACGAC | 0.9912 ± 0.0079
TTGGGGAAAA | 1.04 ± 0.054
ATGGGTACGG | 1.02 ± 0.029
TTCGTGATAG | 1.308 ± 0.0028
AGTCGTGTCT | 0.967 ± 0.012
GGAGAGCGGT | 1.02 ± 0.011
ATAAAGGTTG | 0.993 ± 0.016
AAACGGGTGC | 1.27 ± 0.29
GGTCCATGCT | 0.961 ± 0.032
ATGTGTTGTG | 0.98 ± 0.021
GGTGATGATC | 1.038 ± 0.0044
TTATGTTTCT | 0.972 ± 0.026
GCCTGGTGTC | 1.27 ± 0.055
GAATTGCTGG | 1.01 ± 0.015
GACGGATGAC | 1.33 ± 0.15
AAGGATCGTT | 1 ± 0.018
AAAAAAATTG | 1 ± 0.017
TCTTTTGAGG | 1.02 ± 0.056
TCTGGGTCGC | 1.02 ± 0.017
TTTATATGTT | 1.03 ± 0.04
TGGTAAACGT | 1.05 ± 0.026

Sequence | switch fluorescence ratio
TTTGGTAAAA | 1.01 ± 0.037
CTGGGTATTC | 1.03 ± 0.032
TTATTTTATG | 0.994 ± 0.027
TAATCACGTC | 1.04 ± 0.048
AAATGGGGGG | 0.974 ± 0.017
CGTTTTGGGG | 0.999 ± 0.032
AAAGTTAATG | 1.009 ± 0.0074
AAGAGCCATC | 0.9527 ± 0.009
ATGGTATATT | 1 ± 0.033
CGGGGCGCGC | 1.02 ± 0.044
GGGTGGACAC | 0.947 ± 0.065
GCGTTTAGAT | 1.02 ± 0.013
TTGCGTGGGG | 1.005 ± 0.0065
GATTTGGAGA | 1 ± 0.017
AGGGGGTAGA | 1.05 ± 0.027
TGAAGATTTT | 0.9704 ± 0.0081
ATTTTAAGTA | 0.987 ± 0.031
TGGGTTACTA | 1.002 ± 0.0097
CCTTGAGGGC | 1.34 ± 0.38
AACCCTTTGC | 1.04 ± 0.016
AACCTCCGTT | 1.71 ± 0.064
TATAAAGTTT | 1.01 ± 0.0081
ATTTTGCGGA | 0.968 ± 0.013
CGCCTAAGTT | 1 ± 0.036
ATAGGAATGG | 1.02 ± 0.023

Sequence | switch fluorescence ratio
CAAGATGGTC | 0.987 ± 0.051
TAGAGAGGGT | 0.995 ± 0.035
AAGGTTGATA | 0.988 ± 0.032
TATCTGGGTT | 1.06 ± 0.079
GGCCCCGGCG | 1 ± 0.015
TATACGAAGA | 1.08 ± 0.045
TAATATAGTT | 1.01 ± 0.027
ATGTGCGATT | 1 ± 0.037
TAAGGAGTGG | 1.03 ± 0.073
TTACGGAGGG | 1.02 ± 0.038
GTAAGGAGGG | 0.981 ± 0.032
TTTATCGGTA | 1.01 ± 0.03
GGTGGGTGTG | 1 ± 0.036
TAATAGTTCT | 1.01 ± 0.026
GAGTGATGTT | 0.979 ± 0.012
GCGCTCTTAT | 1.001 ± 0.003
GTGGTCGAGA | 0.986 ± 0.033
GTGGACAAGG | 0.978 ± 0.031
TCTAAGTCCA | 0.989 ± 0.068
CGGTTAACGT | 1.01 ± 0.033
TGTGCGACCT | 1.16 ± 0.043
TTCATTATGG | 1.004 ± 0.0049
GGGGGGTTAT | 0.993 ± 0.026
TATTTTCTTT | 0.982 ± 0.021
GTGGTTTTTT | 0.996 ± 0.022

Sequence | switch fluorescence ratio
TTGAAGCTGG | 0.9746 ± 0.0088
ATTGGTTTAA | 0.9981 ± 0.002
ACCGTCATTT | 1.05 ± 0.046
TTTACGTGCG | 1.054 ± 0.0061
CTGGTTTTTT | 0.99 ± 0.01
AGGGTTATCG | 1.02 ± 0.018
TTAAAGTCGT | 1.01 ± 0.026
TAGTAGGTAG | 0.985 ± 0.025
GGCCACGCTC | 1.04 ± 0.043
GGGGGTCATT | 0.9511 ± 0.0024
GGGGCAGTTA | 1 ± 0.025
ACTATGGCTG | 0.957 ± 0.045
GAGGCTGGGT | 0.988 ± 0.0081
ATTTGTTTAT | 1.09 ± 0.17
ATAGAAGTTA | 0.985 ± 0.031
ATGAGTTACT | 1.005 ± 0.0051
GATAAAAGTT | 1.02 ± 0.066
CTAGGCTGTA | 1 ± 0.021
TACCAAGGGA | 0.991 ± 0.00097
GCGTGGGATA | 1.03 ± 0.038
TTTAAAAATT | 0.987 ± 0.026
ATGAGGTTTG | 1.01 ± 0.019
GGAAATCAGG | 0.989 ± 0.012
CAAAGTAAAA | 1.04 ± 0.054
GCCTGTATTG | 0.982 ± 0.027

Sequence | switch fluorescence ratio
ATTTTTGGGC | 0.993 ± 0.024
AAGTATTGGT | 1.02 ± 0.041
CATGTTTGGT | 0.987 ± 0.013
TAGGTATGGC | 0.976 ± 0.012
AGGGTAGGTG | 1.09 ± 0.012
GGGTATTGCG | 0.977 ± 0.083
ATTAAAAGGT | 1 ± 0.026
GCTGTATTAA | 0.997 ± 0.038
CCATCAAATA | 1.01 ± 0.015
TAAAAAGAGC | 0.984 ± 0.022
GTCATATGTC | 1.07 ± 0.051
TCGCTCCTGG | 1 ± 0.046
TAAGCTGTTA | 0.981 ± 0.038
AATTGCCTGT | 0.933 ± 0.071
CTTTTCATTG | 1.06 ± 0.089
TAGAAGGAAA | 0.9997 ± 0.0017
TTCTGGGGAG | 1.03 ± 0.051
GAGGCTACTG | 0.9901 ± 0.0082
TCATTTTTTT | 0.997 ± 0.036
TAAAAAATGT | 1 ± 0.019
CGGAATAATT | 1.04 ± 0.025
ATAAGGGTTC | 1.03 ± 0.043
CGCGTGCAGG | 1.02 ± 0.033
GGTTGGGGCT | 0.987 ± 0.039
AAGTGCAGGG | 0.9896 ± 0.0057

Sequence | switch fluorescence ratio
GTAGTATTTT | 0.994 ± 0.028
TATCACGGCG | 0.998 ± 0.013
TTATCCGGCG | 0.986 ± 0.056
TAGTGGGATT | 0.994 ± 0.016
GTGTAATGAG | 0.964 ± 0.014
AAGGGGTGTT | 1.02 ± 0.02
GATACTGTAG | 1.09 ± 0.049
ACCGTTTCGT | 0.94 ± 0.029
TTGAAGAAAG | 0.976 ± 0.021
ATTGGAGCAG | 1.055 ± 0.0098
CAGGAAGGGA | 0.9958 ± 0.0064
AGGGGCACGG | 1.02 ± 0.0093
AACATATCGG | 1.02 ± 0.029
AAGATTGAGC | 0.937 ± 0.022
AGTGTTATTG | 0.976 ± 0.028
ATTGATGTTC | 0.99 ± 0.053
CGTAGATAGC | 1.07 ± 0.02
TTTTGTACAA | 1.04 ± 0.059
GTCTCGGCAT | 1.2 ± 0.044
CTCGAGAAGA | 1.01 ± 0.022
CATTGAGCGG | 1 ± 0.018
TAGGTCCCGG | 0.996 ± 0.032
CATTGATTTT | 1.013 ± 0.0022
TTCCGTTGAA | 1.05 ± 0.044
CAGATGTACC | 1.08 ± 0.028

Sequence | switch fluorescence ratio
TAAGAGCGTA | 1.0055 ± 0.00049
GACAGGGAAC | 1.01 ± 0.021
TTTAACAACT | 1.01 ± 0.017
GGTTTAGCCT | 1.04 ± 0.023
AGAAGTGGAG | 1.004 ± 0.01
AAATTTGAAG | 1.02 ± 0.012
GAAAAAGGAA | 1.024 ± 0.0041
AGCGAGAGGG | 0.974 ± 0.031
TAGGGCGCGG | 0.9403 ± 0.0034
TTTTGCGGGG | 1.08 ± 0.15
CATGCGTAAA | 1.238 ± 0.0069
AAATACGAGA | 1.06 ± 0.024
TAGAATGGC | 1.01 ± 0.054
ATATGGGGGG | 0.998 ± 0.023
GAGGTAGGTC | 0.9945 ± 0.0019
TGACGGGGTG | 1.01 ± 0.044
GAACTCGGTC | 0.994 ± 0.01
ATAAAAGGTG | 1.1 ± 0.074
GGTGATGGGT | 0.971 ± 0.04
TTTTTTGACG | 0.9938 ± 0.0062
TTACTCTTCT | 0.972 ± 0.04
TGGTGCTTGG | 1.04 ± 0.013
ATGTCTGGGA | 1 ± 0.037
AGTCGTTGAG | 1.02 ± 0.033
TAACTATTT | 1 ± 0.046
